Laboratory results as given in paper PMC4895224.

Target: 2-Cysteine peroxiredoxin (BxPrx) of Bursaphelenchus xylophilus (Bursaphelenchus xylophilus (endogenous in the nematode))
Experiment: SDS-PAGE and immunoblot of the inter-molecular dimer; nematodes incubated in 0, 1 and 5 mM H2O2 for 5 min, harvested in 20% TCA, resuspended in SDS-PAGE loading buffer, 12% SDS-PAGE, Western blot with anti-BxPrx serum; 80 ug protein extract per lane

- stoichiometry N: 2
Substance: 2-Cysteine peroxiredoxin (BxPrx) of Bursaphelenchus xylophilus (natural protein)
